These results are taken from publication PMC11402598.

Several values for one entry are separate records, joined by “and”; a condition that tells them apart may be missing. Equal values may be shown once.

In one test the target is Fc of human IgG1 (human). The test can be described thus: cryo-EM structure; pre-SEC O432-17-Fc sample, 0.5 mg/ml in 25 mM Tris pH 8.0, 150 mM NaCl; octahedral symmetry applied; design model refined into the map.
Test [1] deals with O432-17(–) nanoparticle assembled with Fc (human). In words: SEC; in vitro packaging: 1x tetramer, 1x Fc, 1.1x negatively charged trimeric plug, 1x pos36GFP, dialysed 16 h at 25 °C into 25 mM Tris pH 8.0, 200 mM NaCl; Superose 6 10/300 GL; absorbance at 280 and 488 nm. (Size exclusion chromatography separates by hydrodynamic size, large species first.)

As a reminder, the stoichiometry N is a count of units in the complex or per binding partner. In the test with Fc of human IgG1 (human), Fc of human IgG1 (domain or fragment) came in with a stoichiometry N of 2.
positively charged GFP (pos36GFP): in test [1], the stoichiometry N (pos36GFP per nanoparticle) was 9 and 10.
